Experimental data taken from patent publication US20210284729A1.
Values joined by “and” are separate entries in the source; they are usually repeats but may differ in a detail not shown here. Equal entries are not always repeated.

Target: 4-1BB (CD137) on T cells (human) (UniProt Q07011)
Test: cell-based or functional assay

Chain of 4-1BB (CD137) on T cells (human) (Q07011 24-255): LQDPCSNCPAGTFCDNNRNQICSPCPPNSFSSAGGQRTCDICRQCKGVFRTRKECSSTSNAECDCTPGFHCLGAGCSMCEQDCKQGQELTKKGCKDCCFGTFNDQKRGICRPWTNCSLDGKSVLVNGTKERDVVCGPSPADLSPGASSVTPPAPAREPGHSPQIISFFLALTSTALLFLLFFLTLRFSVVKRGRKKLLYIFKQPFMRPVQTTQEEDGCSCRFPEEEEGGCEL

co-stimulatory 4-1BB ligand (CD137L) expressed on the surface of gene-modified hMSCs (SCP-1) (from UniProt P41273 1-254)
IFN-gamma secretion by T cells (ELISA, 24 h): > 10 fold
T cell expansion (T cell number at day 6 to day 0): 2 fold and 3 fold
TNF-alpha secretion by T cells (ELISA, 24 h): < 8 fold
expansion of autologous AML patient T cells after 96 h of co-culture: 3 fold
